The target of the test is split SUMO-modified PCNA (N-fragment and ^SUMOC-fragment self-assembled) (yeast) (UniProt P15873). Kind of test: SEC. (SEC sorts molecules by how far they enter the pores of the column.)

Turning to “split SUMO-modified PCNA (N-fragment and ^SUMOC-fragment self-assembled) (from UniProt P15873 1-163; P15873 165-258) (complex)”, the stoichiometry N is 3.

The term stoichiometry N denotes the number of molecules, sites or subunits per partner or assembly.

These data come from article PMC3193175.
